From US20250041430A1, “CONJUGATE COMPOUND AND METHOD FOR PRODUCING CONJUGATE COMPOUND” (NIPPON SHOKUBAI CO., LTD., priority 2021, published 2025)

Assays:
Exonuclease I [1] = molecular target: Exonuclease I (Escherichia coli, UniProt P04995); details: room temperature (about 25° C.), 0, 10 and 20 minutes, FIG. 4
Method: (§1) Quantitative analysis of PGLMA-Mal-nucleic acid and an unmodified nucleic acid in a nucleic acid degradation test described below was performed by ion exchange chromatography. At this time, the analysis conditions were as follows. […]
(§2) To a test tube, 42.5 μL (1.00 nmol) of the PGLMA-Mal-nucleic acid solution obtained in the section of [Preparation of conjugate of Polymer 1 and oligonucleic acid], 5 μL of 10× buffer solution (670 mM Glycine-KOH (pH 9.5), 10 mM DTT, 67 mM MgCl2), 2.5 μL of ultrapure water, and 0.5 μL of Exonuclease I (Takara Bio Inc.) (0.05 Unit/L as the final concentration of Exonuclease I in the mixed solution) were added and mixed, and the mixture was allowed to stand still at room temperature (about 25° C.). […] After 0, 10, and 20 minutes from the start of the reaction, the reaction liquid was collected and analyzed under the analysis conditions in the section of [Analysis conditions of conjugate of Polymer 1 and oligonucleic acid] or the section of [Analysis conditions of unmodified oligonucleic acid], and a residual rate of the nucleic acid was calculated from the following formula.

Exonuclease I [2] = molecular target: T1, Exonuclease I (Escherichia coli, UniProt P04995); details: room temperature (about 25° C.), 0, 10 and 20 minutes, FIG. 4; remark: listed apart in the source
T1 sequence (P04995 whole entry, looked up): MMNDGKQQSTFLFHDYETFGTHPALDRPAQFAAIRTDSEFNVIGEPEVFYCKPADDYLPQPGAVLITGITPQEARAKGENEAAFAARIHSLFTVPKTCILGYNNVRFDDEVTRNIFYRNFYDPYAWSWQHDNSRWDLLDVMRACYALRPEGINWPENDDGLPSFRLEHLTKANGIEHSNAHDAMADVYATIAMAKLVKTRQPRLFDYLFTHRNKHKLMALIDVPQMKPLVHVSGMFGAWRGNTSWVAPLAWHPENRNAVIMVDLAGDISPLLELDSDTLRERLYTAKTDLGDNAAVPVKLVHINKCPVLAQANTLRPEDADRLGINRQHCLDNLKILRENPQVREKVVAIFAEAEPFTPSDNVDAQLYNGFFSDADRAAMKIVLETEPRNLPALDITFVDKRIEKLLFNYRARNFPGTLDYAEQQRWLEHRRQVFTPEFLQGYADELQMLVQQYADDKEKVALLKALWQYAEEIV
Method: as §1, §2

[3] = test system: complement (SC5b-9) in human serum; test: Evaluation of complement activation (2), MicroVue SC5b-9 Plus EIA; details: 37° C., 1 hour, compared with the oligonucleic acid, FIG. 5
Source text: Using a microspectrophotometer (NanoDrop ND-1000, Thermo Fisher Scientific Inc.), Conjugates 5 and 6 thus obtained were each diluted with PBS so that the value at a wavelength of 260 nm was 100. On the other hand, a conjugate (PEG-nucleic acid) prepared according to the description in the section of [Preparation of conjugate of polymer and oligonucleic acid] except that maleimide PEG (SUNBRIGHT ME-100MA, NOF CORPORATION) was used instead of Polymer 3, and the oligonucleic acid (base sequence (5′-d (TAGCACCATGGTTT)-3′)) described in Example 2 were each dissolved in 20 μL of PBS so that the value at a wavelength of 260 nm was 100 by the method described above to prepare a control group. Each solution (4 μL) and human serum (purchased from Tennessee Blood Service) (16 μL) were mixed and incubated at 37° C. for 1 hour. […] For each mixed solution, complement activation was evaluated using an enzyme immunoassay kit (MicroVue™ SC5b-9 Plus EIA, Quidel Corporation). The complement concentration was measured according to the manufacturer's protocol, and the measurement was performed on a plate reader (SH-9000, CORONA ELECTRIC Co., Ltd.). A reaction liquid obtained by reacting PBS with human serum was used as a negative control, and a ratio of the measured value of the negative control and a measured value in each reaction liquid was calculated by the following formula.

[4] = test system: complement (SC5b-9) in human serum; test: Evaluation of complement activation (1), MicroVue SC5b-9 Plus EIA; details: 37° C., 1 hour, compared with BSA, FIG. 2
Method: Using a microspectrophotometer (NanoDrop ND-1000, Thermo Fisher Scientific Inc.), Conjugates 1 to 4 subjected to ultrafiltration treatment were each diluted with PBS so that the value at a wavelength of 280 nm was 100. On the other hand, a conjugate (PEG-BSA) prepared according to the description in the section of [Preparation of conjugate with protein] except that maleimide PEG (SUNBRIGHT ME-100MA, NOF CORPORATION) was used instead of Polymer 1, and 100 mg of BSA were each dissolved in 1 mL of PBS to prepare a control group. Each solution (40 μL) and human serum (purchased from Tennessee Blood Service) (160 μL) were mixed and incubated at 37° C. for 1 hour. […] For each mixed solution, complement activation was evaluated using an enzyme immunoassay kit (MicroVue™ SC5b-9 Plus EIA, Quidel Corporation). The complement concentration was measured according to the manufacturer's protocol, and the measurement was performed on a plate reader (SH-9000, CORONA ELECTRIC Co., Ltd.). A reaction liquid obtained by reacting PBS with human serum was used as a negative control, and a ratio of the measured value of the negative control and a measured value in each reaction liquid was calculated by the following formula.
(Ratio with negative control)=(Measured value in each sample)÷(Measured value of negative control)

5′-d (TAGCACCATGGTTT)-3′ [unmodified nucleic acid]
degradation of the nucleic acid (residual rate of the nucleic acid) (Exonuclease I [1]): degradation of the nucleic acid was observed over time

Conjugate 5: maleimide group of Polymer 1 bonded to the thiol group of the oligonucleic acid 5′-d (TAGCACCATGGTTT)-3′ (DNA, backbone not given here; conjugated to polymer via maleimide-thiol, further chemistry not fully specified)
degradation of the nucleic acid (residual rate of the nucleic acid) (Exonuclease I [2]): remarkable degradation of the nucleic acid was not observed | complement activation (ratio with negative control) [3]: no large difference from the measured value of the oligonucleic acid

PEG-BSA: conjugate with BSA prepared using maleimide PEG (SUNBRIGHT ME-100MA) instead of Polymer 1
complement activation (ratio with negative control) [4]: strong complement activation occurred
